Results: the DeepSol protein solubility set

Assay: soluble on expression in E. coli; label from the status in PepcDB or PDB records

Sequence	soluble on expression in E. coli
MSNPQDDKPIDQEQEAHVILKVKSQDGDEVLFKNKKSAPLKKLMYVYCDRRGLKLDAFAFIFNGARIGGLETPDELDMEDGDVIDACRAMSGGLRANQRQWSYMLFDHNGL	not soluble
MSNQRDYTLIIDKSGSMSIIEPKFQKSRWELVQESTLALARKCDQLDANGITVYTFSGKFRRYDNVNASKVEQIFQENEPVGGTNLTAVLQDALNNFLQRKKSNQAPTGETILVITDGEPNDRRSVFEIIIQASKCLDADEELAISFMQIGNDPSATKFLQALDDQLMEVGAKFDIVDTVTFDEMEDLTLTEVLLNAIEDLEHHHHHH	soluble
MSNVVVCALYKFVSLPHFESLREPLLSMMEQAEIKGTLLLASEGINGTVAGNQAAIDALLIWLNQQNGLENITYKLSFDDEMPFYRTKVKLKKEIVTMGVEGIDPLKVVGTYVKPKDWNALISDPEVVLVDTRNDYEVQIGTFKNAINPVTETFREFPEYVKQNLDPAKHKKVAMFCTGGIRCEKSTAYLKEQGFEEVYHLEGGILKYLEEVNKAESLWEGECFVFDNRVAVDHDLKKGQYDQCNACRMPITEAEKLTPDYVQGVSCPHCIDKISEEQRKRFVERERQVNLAKSRNEAHIGSDVNHVIEARRQKKEALRKQSAEKNKAKQANALEHHHHHH	soluble
MSPDFLVTHSGGFHADELLSSVILTRLFPQARLIRSRAPEWITPAPGRIIYDVGGAYDPAAGIFDHHQRGAPQRDDGQPYSSFGLIWKHYGREYLAASGLPDHHVEALHAAFDTGFVLPIDLTDNGALSPSGPLAGLMLPALLETLKPVFDEAEPAADDRAFHAALAIARSFVDAGIAQRAAKLRAEAIVYRAIGDAGQGRILELPRGMPFRPAIVKAGADHLLFVVHPREKDWCVTGIRRAEDGFELRADLPAAWAGLTNGELEAVCGIEGASFCHNGRFVAAAKTRDAALAMAELAVQEALSIGVLEHHHHHH	soluble
MSPIPLPVTDTDDAWRARIAAHRADKDEFLATHDQSPIPPADRGAFDGLRYFDIDASFRVAARYQPARDPEAVELETTRGPPAEYTRAAVLGFDLGDSHHTLTAFRVEGESSLFVPFTDETTDDGRTYEHGRYMDVDPAGADGGDEVALDFNLAYNPFCAYGGSFSCALPPADNHVPAAITAGERVDADLEHHHHHH	soluble
MSQEIQPQATQLQPFSQACENNKVPILAVLKSAFANTTRVLEIGSGTGQHAVYFATNLPQLFWQTSDQAEYLEGIKARCLLQGHQLGINNLGFPITLDVTAPWPVNGTHIDAVFSANTLHIMSKSMVEAFFNGLGEYLPQLNTLCIYGPFNYQGHYTSDSNRQFDHFLKQRDSESGIRDIEWIIALAQAQGLTLVEDIAMPTNNRLLHFKHLLALEHHHHHH	soluble
MSQEKTGLQRPVLAQLSPIAIRGHSDEGVKKLRRRNDDGCFGEALFKGNAPARSLLFGDDACHRRVENLYLLDNNPTNWSGIKTNLKREIPLLQDPTETFARMNKVMHQTLKYVKEVESINFSSRGVIDFNGEVMEDHQRIFLSVCTSVFANFSFSCQMDVEKLLSFLMALFENYSKENAYHNALHAADSVQMLFLILREKPATLIFTENEVILAFLATLSLGFVHPGVSNAFLARIDHPLVLVYGDMTTQQSAGLTALLYLLNREENRFIDLFANSGTQPFSQFLREILVETVLGTAPRLRSSLLRDLEKVAVADAVELNDIPILLAAVVILADNALALRPHAQFVNLAGLMVTEWLREAYEEEQRGMDPLVPNLRKQIYENGLGMAVDYCKVWLRPLITNIRALVPQDLYDNMEGNTEAPSMSEIQDFLVHLDSSNERWNDGSVPVIDIIRRITMHATSLDRKASKRAILNAASNRAVSGFLSRSSSMCLSPNGARMSAEVSEKKINQQPSRCEHYFSFLRLYDTYEKEGRPAAEFAAQLVFLALQLNPEYIGRYTHKGIDVCSKEECEEIAELIMKKEEAPTTAEVIASPLRDGEQTDGFILRLMEMYAERDRERERNDTLNSATNPTSNLRRTLKCYNPVYGGMYSGKKS	soluble
MSQFSKDQVQDMYYLSPMQEGMLFHAILNPGQSFYLEQITMKVKGSLNIKCLEESMNVIMDRYDVFRTVFIHEKVKRPVQVVLKKRQFHIEEIDLTHLTGSEQTAKINEYKEQDKIRGFDLTRDIPMRAAIFKKAEESFEWVWSYHHIILDGWCFGIVVQDLFKVYNALREQKPYSLPPVKPYKDYIKWLEKQDKQASLRYWREYLEGFEGQTTFAEQRKKQKDGYEPKELLFSPSEAETKAFTELAKSQHTTLSTALQAVWSVLISRYQQSGDLAFGTVVSGRPAEIKGVEHMVGLFINVVPRRVKLSEGITFNGLLKRLQEQSLQSEPHQYVPLYDIQSQADQPKLIDHIIVFENYPLQDAKNEESSENGFDMVDVHVFEKSNYDLNLMASPGDEMLIKLAYNENVFDEAFILRLKSQLLTAIQQLIQNPDQPVSTINLVDDREREFLLTGLNPPAQAHETKPLTYWFKEAVNANPDAPALTYSGQTLSYRELDEEANRIARRLQKHGAGKGSVVALYTKRSLELVIGILGVLKAGAAYLPVDPKLPEDRISYMLADSAAACLLTHQEMKEQAAELPYTGTTLFIDDQTRFEEQASDPATAIDPNDPAYIMYTSGTTGKPKGNITTHANIQGLVKHVDYMAFSDQDTFLSVSNYAFDAFTFDFYASMLNAARLIIADEHTLLDTERLTDLILQENVNVMFATTALFNLLTDAGEDWMKGLRCILFGGERASVPHVRKALRIMGPGKLINCYGPTEGTVFATAHVVHDLPDSISSLPIGKPISNASVYILNEQSQLQPFGAVGELCISGMGVSKGYVNRADLTKEKFIENPFKPGETLYRTGDLARWLPDGTIEYAGRIDDQVKIRGHRIELEEIEKQLQEYPGVKDAVVVADRHESGDASINAYLVNRTQLSAEDVKAHLKKQLPAYMVPQTFTFLDELPLTTNGKVNKRLLPKPDQDQLAEEWIGPRNEMEETIAQIWSEVLGRKQIGIHDDFFALGGHALKAMTAASRIKKELGIDLPVKLLFEAPTIAGISAYLKNGGSDGLQDVTIMNQDQEQIIFAFPPVLGYGLMYQNLSSRLPSYKLCAFDFIEEEDRLDRYADLIQKLQPEGPLTLFGYSAGCSLAFEAAKKLEEQGRIVQRIIMVDSYKKQGVSDLDGRTVESDVEALMNVNRDNEALNSEAVKHGLKQKTHAFYSYYVNLISTGQVKADIDLLTSGADFDIPEWLASWEEATTGVYRMKRGFGTHAEMLQGETLDRNAEILLEFLNTQTVTVSKGEFEAYVEQKLISEEDLNSAVDHHHHHH	soluble
MSQHLVPEAKNGLSKFKNEVANEMGVPFSDYNGDLSSRQCGSVGGEMVKRMVEKYEQSMK	soluble
MSQLLKLKSQYDDECTVTRHYEGKGRNAGRLGAVGCKNRHGEFRIGSGFKDKDRDNPPKIGTLITYRYRGFTRKGTPKFATFVRVRTLEHHHHHH	not soluble
MSQLTEFISCIPVVNEEQNEEDERGLCKIQIEDGAMLETLDENSLSGLRIEKMLVSEGTGIFSKSSFGINDLRIFTGENIDEESKKYVWYELLKMLTGHKVYIASLDEKVVFTKWTCRMQDDEVWKVVMELESSAIIRKIAELTLHPVKKGEIDLFEMADKLYKDICCVNDSYRNIKESDSSNRNRVEQLARERELLDKLLETRDERTRAMMVTLLNEKKKKIRELHEILRQNNIKLSDDDVLDSA	soluble
MSQLVECVPNFSEGNNQEVIDAISQAISQTPGCVLLDVDAGPSTNRTVYTFVGQPECVVEGALSAARTASQLIDMRKHKGEHPRMGALDVCPFIPVRGVSMDECVLCAKAFGQRLAEELNVPVYLYGEAAQMPSRQTLPAIRAGEYEALPEKLKQAEWVPDFGPSSFVPSWGATVTGARKFLIAFNINLLSTKEQAHRIALNLREQGRGKDQPGRLKKVQGIGWYLEEKNLAQVSTNLLDFEVTALHTVYEEARREAQELNLPVVGSQLVGLVPLKALLDAAAFYCDKEKLFVLEEEHRIRLVVNRLGLDSLAPFDPKERIIEYLVPDSGPEQSLLDASLRAFVREVGARSAAPGGGSVAAAVAALGAALASMVGQMTYGRRQFDHLDSTMRRLIPPFHAASAQLTSLVDADARAFAACLGAIKLPKNTPEERDRRTCALQEGLRQAVAVPLKLAETVSQLWPALQELAQCGNLSCLSDLQVAAKALETGVFGAYFNVLINLKDMTDDVFKEKTRHRISSLLQEAKTQAALVLGSLEARKE	soluble
MSQLVYFSSSSENTQRFIERLGLPAVRIPLNERERIQVDEPYILIVPSYGGGGTAGAVPRQVIRFLNDEHNRALLRGVIASGNRNFGEAYGRAGDVIARKCGVPWLYRFELMGTQSDIENVRKGVTEFWQRQPQNA	soluble
